The record followed here is patent US20140271668.

The target of series [1] is lentiviral wild type parkin (expressed in transfected neuroblastoma cells), O60260.
In series [2] the target is T1, non-catalytic mutant T240R parkin (lentiviral), O60260.
T1 chain: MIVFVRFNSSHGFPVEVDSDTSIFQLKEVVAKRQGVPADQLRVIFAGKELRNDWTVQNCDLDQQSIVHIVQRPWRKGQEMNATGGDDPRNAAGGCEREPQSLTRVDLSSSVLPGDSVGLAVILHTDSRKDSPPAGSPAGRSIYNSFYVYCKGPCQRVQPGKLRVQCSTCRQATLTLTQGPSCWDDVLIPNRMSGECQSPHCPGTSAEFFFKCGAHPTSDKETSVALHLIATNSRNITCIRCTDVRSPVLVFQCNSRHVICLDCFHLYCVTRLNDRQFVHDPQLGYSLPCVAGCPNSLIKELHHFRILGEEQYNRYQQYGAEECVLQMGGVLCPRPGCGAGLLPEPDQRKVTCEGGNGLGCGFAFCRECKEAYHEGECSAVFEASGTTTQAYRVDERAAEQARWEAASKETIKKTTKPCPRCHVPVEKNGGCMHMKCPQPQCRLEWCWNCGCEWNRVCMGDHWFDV

B1: lentiviral USP13 (expressed in transfected neuroblastoma cells) (protein)
chain: MQRRGALFGMPGGSGGRKMAAGDIGELLVPHMPTIRVPRSGDRVYKNECAFSYDSPNSEGGLYVCMNTFLAFGREHVERHFRKTGQSVYMHLKRHVREKVRGASGGALPKRRNSKIFLDLDTDDDLNSDDYEYEDEAKLVIFPDHYEIALPNIEELPALVTIACDAVLSSKSPYRKQDPDTWENELPVSKYANNLTQLDNGVRIPPSGWKCARCDLRENLWLNLTDGSVLCGKWFFDSSGGNGHALEHYRDMGYPLAVKLGTITPDGADVYSFQEEEPVLDPHLAKHLAHFGIDMLHMHGTENGLQDNDIKLRVSEWEVIQESGTKLKPMYGPGYTGLKNLGNSCYLSSVMQAIFSIPEFQRAYVGNLPRIFDYSPLDPTQDFNTQMTKLGHGLLSGQYSKPPVKSELIEQVMKEEHKPQQNGISPRMFKAFVSKSHPEFSSNRQQDAQEFFLHLVNLVERNRIGSENPSDVFRFLVEERIQCCQTRKVRYTERVDYLMQLPVAMEAATNKDELIAYELTRREAEANRRPLPELVRAKIPFSACLQAFSEPENVDDFWSSALQAKSAGVKTSRFASFPEYLVVQIKKFTFGLDWVPKKFDVSIDMPDLLDINHLRARGLQPGEEELPDISPPIVIPDDSKDRLMNQLIDPSDIDESSVMQLAEMGFPLEACRKAVYFTGNMGAEVAFNWIIVHMEEPDFAEPLTMPGYGGAASAGASVFGASGLDNQPPEEIVAIITSMGFQRNQAIQALRATNNNLERALDWIFSHPEFEEDSDFVIEMENNANANIISEAKPEGPRVKDGSGTYELFAFISHMGTSTMSGHYICHIKKEGRWVIYNDHKVCASERPPKDLGYMYFYRRIPS
Regarding B1, in series [1], the “parkin ubiquitination (E3LITE ubiquitin ligase ELISA with E1, UbcH7, ATP and WT ubiquitin)” value is on record as “USP13 significantly decreased (36%) parkin ubiquitination”; the “ubiquitinated parkin level (parkin immunoprecipitation and Western blot with anti-ubiquitin antibodies)” value is “decreased ubiquitinated parkin level when parkin was co-expressed with USP13”. In addition, in series [2], the “level of ubiquitinated proteins (parkin immunoprecipitation and Western blot with anti-ubiquitin antibodies)” value is listed as “the level of ubiquitinated proteins when mutant T240R parkin was expressed was unaltered in the presence or absence of USP13”.
